In US20250368745A1 (published 2025) one finds Kd data, which are given here for 33 molecules.

Positions count from the first letter of the chain named. Names and notes keep the numbering of the source.

The chains are these.
T1: human IL-18BP (human, UniProt O95998 31-194)
T1 construct: UniProt printed as 095998; also called hIL-18BP
T1 sequence: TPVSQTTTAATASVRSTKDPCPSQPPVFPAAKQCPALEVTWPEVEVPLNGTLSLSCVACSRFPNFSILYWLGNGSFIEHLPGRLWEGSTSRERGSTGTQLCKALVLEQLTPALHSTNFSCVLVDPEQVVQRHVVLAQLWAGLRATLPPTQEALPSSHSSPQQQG

B1: SA302a HC-H35D (antibody, V domains shown)
VH: QVQLQESGPGLVKPSQTLSLTCTVSGYSITSDYNADWIRQPPGKGLEWIGYIHYSGSTNYNPSLKSRVTISRDTSKNQFSLKLSSVTAADTAVYYCARNYGSIYVNYFDYWGQGTLVTVSS
VL: EIVLTQSPATLSLSPGERATLSCSASSSVSYMYWYQQKPGQAPRPLIYRTSNLASGIPARFSGSGSGTDFTLTISSLEPEDFAVYYCQQYHSYPTFGGGTKVEIK
B2: SA302a HC-N33bK (antibody, V domains shown)
VH: B1 VH with N34K, D36H
VL: B1 VL
B3: SA302a HC-N33bH (antibody, V domains shown)
VH: B1 VH with N34H, D36H
VL: B1 VL
B4: SA302a HC-N33bV (antibody, V domains shown)
VH: B1 VH with N34V, D36H
VL: B1 VL
B5: SA302a HC-N33bQ (antibody, V domains shown)
VH: B1 VH with N34Q, D36H
VL: B1 VL
B6: SA302a HC-N33bT (antibody, V domains shown)
VH: B1 VH with N34T, D36H
VL: B1 VL
B7: SA302a HC-H35R (antibody, V domains shown)
VH: B1 VH with D36R
VL: B1 VL
B8: SA302a HC-N33bG (antibody, V domains shown)
VH: B1 VH with N34G, D36H
VL: B1 VL
B9: SA302a HC-N33bR (antibody, V domains shown)
VH: B1 VH with N34R, D36H
VL: B1 VL
B10: SA302a HC-N33bY (antibody, V domains shown)
VH: B1 VH with N34Y, D36H
VL: B1 VL
B11: SA302a HC-H35G (antibody, V domains shown)
VH: B1 VH with D36G
VL: B1 VL
B12: SA302a HC-Y33aS (antibody, V domains shown)
VH: B1 VH with Y33S, D36H
VL: B1 VL
B13: SA302a HC-Y33aN (antibody, V domains shown)
VH: B1 VH with Y33N, D36H
VL: B1 VL
B14: SA302a HC-N33bD (antibody, V domains shown)
VH: B1 VH with N34D, D36H
VL: B1 VL
B15: SA302a HC-N33bF (antibody, V domains shown)
VH: B1 VH with N34F, D36H
VL: B1 VL
B16: SA302a HC-Y33aL (antibody, V domains shown)
VH: B1 VH with Y33L, D36H
VL: B1 VL
B17: SA302a HC-H35L (antibody, V domains shown)
VH: B1 VH with D36L
VL: B1 VL
B18: SA302a HC-H35N (antibody, V domains shown)
VH: B1 VH with D36N
VL: B1 VL
B19: SA302a HC-N33bP (antibody, V domains shown)
VH: B1 VH with N34P, D36H
VL: B1 VL
B20: SA302a HC-Y33aD (antibody, V domains shown)
VH: B1 VH with Y33D, D36H
VL: B1 VL
B21: SA302a HC-Y33aH (antibody, V domains shown)
VH: B1 VH with Y33H, D36H
VL: B1 VL
B22: SA302a HC-Y33aE (antibody, V domains shown)
VH: B1 VH with Y33E, D36H
VL: B1 VL
B23: SA302a HC-Y33aM (antibody, V domains shown)
VH: B1 VH with Y33M, D36H
VL: B1 VL
B24: SA302a HC-Y33aR (antibody, V domains shown)
VH: B1 VH with Y33R, D36H
VL: B1 VL
B25: SA302a HC-D33R (antibody, V domains shown)
VH: B1 VH with D32R, D36H
VL: B1 VL
B26: SA302a HC-Y33aV (antibody, V domains shown)
VH: B1 VH with Y33V, D36H
VL: B1 VL
B27: SA302a HC-N33bA (antibody, V domains shown)
VH: B1 VH with N34A, D36H
VL: B1 VL
B28: SA301a HC-H52A (antibody, name in Kabat numbering, V domains shown)
VH: B1 VH with A35S, D36H, H53A
VL: B1 VL
notes: IgG1 kappa
B29: SA301a HC-H52Y (antibody, name in Kabat numbering, V domains shown)
VH: B1 VH with A35S, D36H, H53Y
VL: B1 VL
notes: IgG1 kappa
B30: SA301a HC-H52K (antibody, name in Kabat numbering, V domains shown)
VH: B1 VH with A35S, D36H, H53K
VL: B1 VL
notes: IgG1 kappa
B31: SA301a HC-H52T (antibody, name in Kabat numbering, V domains shown)
VH: B1 VH with A35S, D36H, H53T
VL: B1 VL
notes: IgG1 kappa
B32: SA301a HC-H52P (antibody, name in Kabat numbering, V domains shown)
VH: B1 VH with A35S, D36H, H53P
VL: B1 VL
notes: IgG1 kappa
B33: SA301a HC-S54G (antibody, name in Kabat numbering, V domains shown)
VH: B1 VH with A35S, D36H, S55G
VL: B1 VL
notes: IgG1 kappa

The first assay addresses T1, human IL-18BP. The assay is described as follows: BLI, apparent KD. In general terms: BLI is a label-free optical method that tracks binding on a fibre tip over time.
Regarding B1, the Kd came out at 4.23 nM.
Still for that read-out and setting: as for B2, the figure is 1.12 nM.
As for B3, the Kd was 2.91 nM.
As to B4, the Kd turned out to be 1.36 nM.
Still for that read-out and setting: under B5 stands 6.01 nM.
Same read-out and setting: as for B6, the figure is 1.63 nM; as for B7, 1.18 nM.
On to B8, for which the Kd turned out to be 2.21 nM.
Turning to B9, the Kd was 2.23 nM.
Still for that read-out and setting: as for B10, the figure is 6.15 nM; as for B11, 2.05 nM.
The same measure, in the same setting: as for B12, the figure is 4.38 nM.
On the same count and under the same terms, under B13 stands 5.92 nM; under B14, 1.03 nM; under B15, 5.24 nM.
For B16, the Kd came out at 2.36 nM.
On to B17, for which the Kd came to 1.74 nM.
Same read-out and setting: as for B18, the figure is 3.02 nM; as for B19, 6.05 nM.
Same read-out and setting: as for B20, the figure is 10.5 nM; as for B21, 4.11 nM; as for B22, 8.65 nM.
Still for that read-out and setting: as for B23, the figure is 3.05 nM.
Take B24: the Kd came to 8.72 nM.
On the same count and under the same terms, as for B25, the figure is 2.24 nM; as for B26, 4.49 nM.
On the same count and under the same terms, under B27 stands 5.45 nM.

The next assay has as its target T1, human IL-18BP. The assay is described as follows: BLI, apparent KD. The source holds these as a separate data set.
Take B28: the Kd amounted to 0.24 nM.
On the same count and under the same terms, under B29 stands 0.79 nM; under B30, 0.01 nM; under B31, 1.92 nM.
On the same count and under the same terms, under B32 stands 0.01 nM; under B33, 0.33 nM.
